The nature of this series: Stability of radiotracers in PBS / kit-based reaction solution. In kind it is physicochemical. The following applies: ^99mTc and ^188Re radiotracers; radio-HPLC. As to the method: The new radiotracers, [^64Cu(DP^An-PSMAt)2]^+ and [^64Cu(DP^MEP-PSMAt)2]^+, were purified using reverse-phase HPLC, reformulated in aqueous PBS (phosphate buffered saline) solution, and incubated with human serum at 37 °C. […] Both ^64Cu radiotracers were also stable in aqueous PBS solution (see SI).
Both [^99mTcO2(DP^An-PSMAt)2]^+ and [^99mTcO2(DP^MEP-PSMAt)2]^+, prepared using kits, were incubated at 37 °C in human serum for up to 24 h. […] [^188ReO2(DP^An-PSMAt)2]^+ and [^188ReO2(DP^MEP-PSMAt)2]^+, prepared using kits and then isolated using reverse-phase HPLC in >98% radiochemical purity, were also incubated in human serum under the same conditions. […] These ^99mTc and ^188Re radiotracers were also stable when left to stand in kit-based reaction solutions, or in PBS solution (see SI for full chromatograms).
64Cu: A solution of either [ 64Cu(DPAn-PSMAt)2]+ or [64Cu(DPMEP-PSMAt)2]+ (purified, >98% RCP, 0.6– 0.8 MBq in 8–20 µL PBS) was diluted with PBS (350 µL total volume) and incubated at 37 °C. After 24 h, the sample was analysed by analytical C18 radio-HPLC (Method 2). […]
Each aliquot was treated with an equal amount of ice -cold MeCN to precipitate serum proteins and centrifuged (10,000 rpm, 10 min). The supernatant was isolated, MeCN evaporated under a stream of N2, and the resultant solution analysed by analytical C18 radio-HPLC (Method 2). […]

`COCCOc1ccc(P(/C(C(=O)O)=C(/C(=O)NCCOCCOCCOCCOCCC(=O)NCCCC[C@H](NC(=O)N[C@@H](CCC(=O)O)C(=O)O)C(=O)O)P(c2ccc(OCCOC)cc2)c2ccc(OCCOC)cc2)c2ccc(OCCOC)cc2)cc1` [[^99mTcO2(DP^MEP-PSMAt)2]^+, metal not drawn]: the “stability when left to stand in kit-based reaction solutions, or in PBS solution” value is “stable”.

In the case of `COc1ccc(P(/C(C(=O)O)=C(/C(=O)NCCOCCOCCOCCOCCC(=O)NCCCC[C@H](NC(=O)N[C@@H](CCC(=O)O)C(=O)O)C(=O)O)P(c2ccc(OC)cc2)c2ccc(OC)cc2)c2ccc(OC)cc2)cc1` [[^99mTcO2(DP^An-PSMAt)2]^+, metal not drawn], the “stability when left to stand in kit-based reaction solutions, or in PBS solution” value is given as “stable”.
